B1: Ic_S1_P5E.1_K5.1_C5.1_H5.1_A5.1_[T5G]_[A7T]_F5.1_[T8C]_[T9C]_[A10T]_T5.1 (ssRNA)
RNA: UCUCUUUGUAGUUCCUUCUCUU
B2: Ic_S1_P5E.1_K5.1_C5.1_H5.1_A5.1_[A7T]_F5.1_[T9C]_[A10G]_T5.1 (ssRNA)
RNA: UCUCUUUGUAUUUUCGUCUCUU
B3: Ic_S1_P5E.1_K5.1_C5.1_H5.1_A5.1_[T5G]_[T6C]_[A7C]_F5.1_[T9A]_[A10C]_T5.1 (ssRNA)
RNA: UCUCUUUGUAGCCUACUCUCUU
B4: Ic_S1_P5E.1_K5.1_C5.1_H5.1_A5.1_[T5A]_F5.1_[T8C]_[A10T]_T5.1 (ssRNA)
RNA: UCUCUUUGUAAUACUUUCUCUU
B5: Ic_S1_P5E.1_K5.1_C5.1_H5.1_A5.1_[T5C]_[T6G]_[A7T]_F5.1_[T9G]_[A10T]_T5.1 (ssRNA)
RNA: UCUCUUUGUACGUUGUUCUCUU
B6: Ic_S1_P5E.1_K5.1_C5.1_H5.1_A5.1_[T5G]_[T6C]_[A7C]_F5.1_[T8C]_[A10T]_T5.1 (ssRNA)
RNA: UCUCUUUGUAGCCCUUUCUCUU
B7: Ic_S1_P5E.1_K5.1_C5.1_H5.1_A5.1_[T6G]_[A7C]_F5.1_[T8C]_[T9G]_[A10G]_T5.1 (ssRNA)
RNA: UCUCUUUGUAUGCCGGUCUCUU
B8: Ic_S1_P5E.1_K5.1_C5.1_H5.1_A5.1_[T5A]_[T6C]_[A7T]_F5.1_[T8A]_[T9G]_[A10T]_T5.1 (ssRNA)
RNA: UCUCUUUGUAACUAGUUCUCUU
B9: Ic_S1_P5E.1_K5.1_C5.1_H5.1_A5.1_[T5C]_[A7T]_F5.1_[T8C]_T5.1 (ssRNA)
RNA: UCUCUUUGUACUUCUAUCUCUU
B10: Ic_S1_P3E.1_K3.1_C3.1_H3.1_A3.1_[A6T]_F3.1_[A8C]_T3.1 (ssRNA)
RNA: UCUCUUUGUAUUUCUCUCUU
B11: Ic_S1_P5E.1_K5.1_C5.1_H5.1_A5.1_[T5C]_[T6A]_[A7T]_F5.1_[T8G]_T5.1 (ssRNA)
RNA: UCUCUUUGUACAUGUAUCUCUU
B12: Ic_S1_P5E.1_K5.1_C5.1_H5.1_A5.1_[A7C]_F5.1_[T8C]_[T9C]_T5.1 (ssRNA)
RNA: UCUCUUUGUAUUCCCAUCUCUU
B13: Ic_S1_P5E.1_K5.1_C5.1_H5.1_A5.1_[T5A]_[T6A]_[A7T]_F5.1_[T9C]_[A10T]_T5.1 (ssRNA)
RNA: UCUCUUUGUAAAUUCUUCUCUU
B14: Ic_S1_P5E.1_K5.1_C5.1_H5.1_A5.1_[T5A]_[T6A]_[A7C]_F5.1_[T8C]_[A10C]_T5.1 (ssRNA)
RNA: UCUCUUUGUAAACCUCUCUCUU
B15: Ic_S1_P3E.1_K3.1_C3.1_H3.1_A3.1_[A6C]_F3.1_[A8C]_T3.1 (ssRNA)
RNA: UCUCUUUGUAUCUCUCUCUU
B16: Ic_S1_P5E.1_K5.1_C5.1_H5.1_A5.1_[T6A]_F5.1_[T8C]_[T9C]_[A10G]_T5.1 (ssRNA)
RNA: UCUCUUUGUAUAACCGUCUCUU
B17: Ic_S1_P5E.1_K5.1_C5.1_H5.1_A5.1_[T5A]_[A7C]_F5.1_[T8G]_[T9A]_[A10C]_T5.1 (ssRNA)
RNA: UCUCUUUGUAAUCGACUCUCUU
B18: Ic_S1_P5E.1_K5.1_C5.1_H5.1_A5.1_[T6A]_[A7C]_F5.1_[T8C]_[T9G]_T5.1 (ssRNA)
RNA: UCUCUUUGUAUACCGAUCUCUU
B19: Ic_S1_P5E.1_K5.1_C5.1_H5.1_A5.1_[T5G]_[T6C]_[A7C]_F5.1_[T9A]_[A10T]_T5.1 (ssRNA)
RNA: UCUCUUUGUAGCCUAUUCUCUU
B20: Ic_S1_P5E.1_K5.1_C5.1_H5.1_A5.1_[T5C]_[A7C]_F5.1_[T8C]_[T9A]_[A10C]_T5.1 (ssRNA)
RNA: UCUCUUUGUACUCCACUCUCUU
B21: Ic_S1_P3E.1_K3.1_C3.1_H3.1_A3.1_[A6G]_F3.1_[A8C]_T3.1 (ssRNA)
RNA: UCUCUUUGUAUGUCUCUCUU
B22: Ic_S1_P5E.1_K5.1_C5.1_H5.1_A5.1_[T6C]_[A7T]_F5.1_[T8C]_[T9G]_[A10C]_T5.1 (ssRNA)
RNA: UCUCUUUGUAUCUCGCUCUCUU
B23: Ic_S1_P5E.1_K5.1_C5.1_H5.1_A5.1_[T5A]_[T6G]_[A7C]_F5.1_[T8C]_[T9A]_[A10T]_T5.1 (ssRNA)
RNA: UCUCUUUGUAAGCCAUUCUCUU
B24: Ic_S1_P5E.1_K5.1_C5.1_H5.1_A5.1_[T5C]_[T6A]_[A7G]_F5.1_[T8C]_[T9C]_[A10C]_T5.1 (ssRNA)
RNA: UCUCUUUGUACAGCCCUCUCUU
B25: Ic_S1_P5E.1_K5.1_C5.1_H5.1_A5.1_[T5C]_[T6A]_[A7T]_F5.1_[T8G]_[A10T]_T5.1 (ssRNA)
RNA: UCUCUUUGUACAUGUUUCUCUU
B26: Ic_S1_P5E.1_K5.1_C5.1_H5.1_A5.1_[T5A]_[T6C]_[A7T]_F5.1_[T8G]_[T9A]_[A10C]_T5.1 (ssRNA)
RNA: UCUCUUUGUAACUGACUCUCUU
B27: Ic_S1_P5E.1_K5.1_C5.1_H5.1_A5.1_[T6C]_[A7T]_F5.1_[T8C]_[T9C]_[A10G]_T5.1 (ssRNA)
RNA: UCUCUUUGUAUCUCCGUCUCUU
B28: Ic_S1_P3E.1_K3.1_C3.1_H3.1_A3.1_[A6G]_F3.1_[A8T]_T3.1 (ssRNA)
RNA: UCUCUUUGUAUGUUUCUCUU
B29: Ic_S1_P5E.1_K5.1_C5.1_H5.1_A5.1_[A7T]_F5.1_[T8C]_[T9C]_T5.1 (ssRNA)
RNA: UCUCUUUGUAUUUCCAUCUCUU
B30: Ic_S1_P5E.1_K5.1_C5.1_H5.1_A5.1_[T5A]_[T6A]_F5.1_[A10T]_T5.1 (ssRNA)
RNA: UCUCUUUGUAAAAUUUUCUCUU
B31: Ic_S1_P5E.1_K5.1_C5.1_H5.1_A5.1_[T5A]_[T6C]_F5.1_[T9G]_[A10C]_T5.1 (ssRNA)
RNA: UCUCUUUGUAACAUGCUCUCUU
B32: Ic_S1_P3E.1_K3.1_C3.1_H3.1_A3.1_[A6C]_F3.1_[A8T]_T3.1 (ssRNA)
RNA: UCUCUUUGUAUCUUUCUCUU

Each binder was assayed against T1, PUF4 RNA-binding domain (Saccharomyces cerevisiae, UniProt P25339 537-888) (assay: Mg; RNA-MaP; 20 mM Na-HEPES pH 7.4, 30 mM KOAc, 0.75 mM MgCl2, 0.1% Tween-20, 5% glycerol, 0.1 mg/mL BSA, 2 mM DTT; 25 C; 0.0125-409.6 nM protein). Details: tags: N-His6-TEV cleaved; C-SNAP kept, Cy3B-labelled; label: tethered on chip by stalled RNA polymerase.
T1 sequence: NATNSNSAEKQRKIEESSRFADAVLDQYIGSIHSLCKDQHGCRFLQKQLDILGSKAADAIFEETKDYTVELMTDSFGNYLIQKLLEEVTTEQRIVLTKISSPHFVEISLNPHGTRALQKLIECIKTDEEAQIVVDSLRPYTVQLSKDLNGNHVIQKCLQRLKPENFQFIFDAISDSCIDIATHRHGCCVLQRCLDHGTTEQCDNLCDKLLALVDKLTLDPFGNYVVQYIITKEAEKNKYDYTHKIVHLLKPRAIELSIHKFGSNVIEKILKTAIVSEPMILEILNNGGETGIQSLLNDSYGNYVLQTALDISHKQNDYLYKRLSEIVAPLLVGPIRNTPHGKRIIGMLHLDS

| Binder | Kd |
| --- | --- |
| B1 | 1.76 µM |
| B2 | 0.0376 µM |
| B3 | 0.0489 µM |
| B4 | 0.212 µM |
| B5 | 0.0348 µM |
| B6 | > 2.3 µM |
| B7 | > 2.3 µM |
| B8 | 0.642 µM |
| B9 | 0.00777 µM |
| B10 | 0.111 µM |
| B11 | 0.00891 µM |
| B12 | 0.587 µM |
| B13 | 0.0201 µM |
| B14 | 0.548 µM |
| B15 | 0.0974 µM |
| B16 | 0.152 µM |

| Binder | Kd |
| --- | --- |
| B17 | 1.54 µM |
| B18 | 0.45 µM |
| B19 | 0.0171 µM |
| B20 | 0.5 µM |
| B21 | 0.677 µM |
| B22 | 0.16 µM |
| B23 | 0.317 µM |
| B24 | 0.142 µM |
| B25 | 0.0272 µM |
| B26 | 0.448 µM |
| B27 | 0.484 µM |
| B28 | 0.0493 µM |
| B29 | 0.363 µM |
| B30 | 0.0238 µM |
| B31 | 0.0132 µM |
| B32 | 0.0323 µM |
